{"source": "patent US20230173037A1", "about": "“Manipulating Glycogen in Alzheimer’s Disease, Epilepsy, Traumatic Brain Injury, and ALS as a Treatment” (University of Kentucky Research Foundation, priority 2020, published 2023)", "assay": "Activity of enzymes to degrade glycogen under neutral pH", "assay_type": "biochemical", "conditions": "neutral pH of the cellular environment", "data": [{"molecule": "human pancreatic α-amylase: enzyme component of VAL-0417, degrades glycogen (protein, UniProt P04746 16-511, looked up) Pancreatic alpha-amylase: QYSPNTQQGRTSIVHLFEWRWVDIALECERYLAPKGFGGVQVSPPNENVAIYNPFRPWWERYQPVSYKLCTRSGNEDEFRNMVTRCNNVGVRIYVDAVINHMCGNAVSAGTSSTCGSYFNPGSRDFPAVPYSGWDFNDGKCKTGSGDIENYNDATQVRDCRLTGLLDLALEKDYVRSKIAEYMNHLIDIGVAGFRLDASKHMWPGDIKAILDKLHNLNSNWFPAGSKPFIYQEVIDLGGEPIKSSDYFGNGRVTEFKYGAKLGTVIRKWNGEKMSYLKNWGEGWGFVPSDRALVFVDNHDNQRGHGAGGASILTFWDARLYKMAVGFMLAHPYGFTRVMSSYRWPRQFQNGNDVNDWVGPPNNNGVIKEVTINPDTTCGNDWVCEHRWRQIRNMVIFRNVVDGQPFTNWYDNGSNQVAFGRGNRGFIVFNNDDWSFSLTLQTGLPAGTYCDVISGDKINGNCTGIKIYVSDDGKAHFSISNSAEDPFIAIHAESKL", "values": [{"measurement": "activity to degrade glycogen", "result": "best activity"}]}]}
